Test results: patent US20170224783

Molecular target: pyruvate dehydrogenase complex (PDHC) immuno-captured from tissue lysates of E3 mice

B1: TAT-LAD fusion protein (His tag, TAT peptide, human LAD precursor) (protein)
chain: MGSSHHHHHHSSGLVPRGSHMRKKRRQRRRGSDPQSWSRVYCSLAKRGHFNRISHGLQGLSAVPLRTYADQPIDADVTVIGSGPGGYVAAIKAAQLGFKTVCIEKNETLGGTCLNVGCIPSKALLNNSHYYHMAHGTDFASRGIEMSEVRLNLDKMMEQKSTAVKALTGGIAHLFKQNKVVHVNGYGKITGKNQVTATKADGGTQVIDTKNILIATGSEVTPFPGITIDEDTIVSSTGALSLKKVPEKMVVIGAGVIGVELGSVWQRLGADVTAVEFLGHVGGVGIDMEISKNFQRILQKQGFKFKLNTKVTGATKKSDGKIDVSIEAASGGKAEVITCDVLLVCIGRRPFTKNLGLEELGIELDPRGRIPVNTRFQTKIPNIYAIGDVVAGPMLAHKAEDEGIICVEGMAGGAVHIDYNCVPSVIYTHPEVAWVGKSEEQLKEEGIEYKVGKFPFAANSRAKTNADTDGMVKILGQKSTDRVLGAHILGPGAGEMVNEAALALEYGASCEDIARVCHAHPTLSEAFREANLAASFGKSINFE
PDHC enzymatic activity of immuno-captured PDHC, the three organs at 24 hours post-treatment, percent increase: increase in PDHC enzymatic activity (40-65%) was also evident in the three organs at 24 hours post-treatment
